Test results reported in patent US20130261013A1 (MODPRO, published 2013).
One block for each binder: values may come before it. Ends that are not written are not given here. * marks the point of attachment. PP1 = 3,5-bis[[bis(2-pyridylmethyl)amino]methyl]benzoic acid, O=C(c1cc(CN(Cc2ccccn2)Cc2ccccn2)cc(CN(Cc2ccccn2)Cc2ccccn2)c1)*; X2 = 7‑methoxycoumarin‑3‑carboxylic acid, COc1ccc2cc(C(=O)*)c(=O)oc2c1

Assays:
α-casein [1] = molecular target: T1, α-casein (UniProt P02662 16-214, between 8 and 13 phosphate groups, at serine side chains); test: fluorescence titration, 100 nM fluorescein labelled binder, α-casein 1 nM to 10 µM, 1:1 model
T1 construct: Commercial α-casein is a mixture of subtypes; also called a-casein
T1 sequence (looked up): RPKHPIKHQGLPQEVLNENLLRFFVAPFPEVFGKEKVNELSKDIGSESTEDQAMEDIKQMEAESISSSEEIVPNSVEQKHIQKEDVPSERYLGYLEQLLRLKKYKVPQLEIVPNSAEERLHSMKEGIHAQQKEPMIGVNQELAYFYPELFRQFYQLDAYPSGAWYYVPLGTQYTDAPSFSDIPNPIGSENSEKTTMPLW
Protocol: (§1) For a more accurate determination of the dissociation constant, titration with protein at a binder concentration of 100 nM in 10 mM HEPES buffer and 150 mM NaCl at pH 7.2 was carried out (FIG. 12). At this concentration a more strongly emitting probe was required and fluorescein was attached to the side chain of Cys-24 by reacting the maleimide group with the free thiol of the polypeptide after removal of the acetamidomethyl (Acm) protection group. The binder concentration was kept constant at 100 nM and a series of samples were prepared where only the concentration of α-casein was varied.
(§2) A series of solutions were prepared. […] All solutions were prepared in HEPES buffer (pH=7.2, 10 mM HEPES, 150 mM NaCl).

α-casein [2] = molecular target: T1, α-casein; test: fluorescence titration, binder fixed at 100 nM, concentration of total α-casein varied [upper panel, [a-casein]tot]
Protocol: as §1, §2

α-casein [3] = molecular target: T1, α-casein; test: fluorescence titration, binder fixed at 100 nM, plotted against the free concentration of α-casein [lower panel, [a-casein]free]
Protocol: as §1

α-casein [4] = molecular target: T1, α-casein; test: three-step fluorescence titration, 500 nM binder; rough estimate
Protocol: In a preliminary and simple assay executable in microtitre plate format, each of the eight binder candidates at a concentration of 500 nM in 10 mM HEPES buffer and 150 mM NaCl at pH 7.2, equipped with the fluorophor 7-methoxycoumarin-3-carboxylic acid, were titrated with α-casein in three steps (FIG. 8). Concentrations of peptides were determined from the absorbance of the coumarine probe and stock solutions at concentrations of 5 μM were prepared from which aliqiuots were transferred to the microtitre plate. […] Saturation within experimental error at those concentrations is compatible with low nM affinity and tight binding.
In contrast, the differences in relative responses to increased concentrations of α-casein are related to differences in affinity. […] Nevertheless, it is a quick and informative experiment. From the fluorescence titrations the 4-series of binder candidates was estimated to have dissociation constants of around 5 nM or lower. […] It is concluded that the 3-series binders have dissociation constants in the high nM to the μM range. The nearly identical affinities within the 3-series and within the 4-series is probably fortuitous.

- Kd (α-casein [1]): 17 nM
- EC50 (read off the curve) (α-casein [2]): ~70 nM
- EC50 (read off the curve) (α-casein [3]): ~20 nM
B1: 4-C15L8-PP1* (fluorescein on Cys-24) (designed binder)
chain: NAADLEAK(PP1)IRHLREKLAARGPRDC(fluorescein maleimide)AQLAEQLARRFERFARAG-NH2
modifications: not fully specified (N-terminus); also: PP1 chelating two Zn2+, group on Lys15 not given here

- Kd (α-casein [4]): ≤ 5 nM
Binder: NAADLEARIRHLRERLAARGPK(PP1)DCK(X2)QLAEQLARAFERFARAG-NH2 (designed binder, not fully specified (residue 24, N-terminus); also: two Zn2+ chelated by PP1, Named only as a member of the 4-series) [4-C25L22-PP1 (coumarin form, with Zn2+)]
